{
  "source": "patent US20210063414A1",
  "about": "“METHODS FOR PREVENTING AND/OR TREATING BONE LOSS CONDITIONS BY MODULATING IRISIN” (Dana-Farber Cancer Institute, Inc., priority 2018, published 2021)",
  "molecules": {"B1": {"name": "irisin: secreted cleaved form of FNDC5; recombinant human/mouse irisin with C-terminal his tag produced in HEK293 cells (protein)", "chain": "DSPSAPVNVTVRHLKANSAVVSWDVLEDEVVIGFAISQQKKDVRMLRFIQEVNTTTRSCALWDLEEDTEYIVHVQAISIQGQSPASEPVLFKTPREAEKMASKNKDEVTMKE", "modifications": "left off: small tags and cut ends", "notes": "secreted cleaved form of FNDC5; recombinant human/mouse irisin with C-terminal his tag produced in HEK293 cells"}},
  "target": "T1, MLO-Y4 cell surface proteins (Mus musculus, UniProt Q8K221)",
  "T1 construct": "endogenous in cells; host or cells: MLO-Y4",
  "T1 sequence (Q8K221 1-341)": "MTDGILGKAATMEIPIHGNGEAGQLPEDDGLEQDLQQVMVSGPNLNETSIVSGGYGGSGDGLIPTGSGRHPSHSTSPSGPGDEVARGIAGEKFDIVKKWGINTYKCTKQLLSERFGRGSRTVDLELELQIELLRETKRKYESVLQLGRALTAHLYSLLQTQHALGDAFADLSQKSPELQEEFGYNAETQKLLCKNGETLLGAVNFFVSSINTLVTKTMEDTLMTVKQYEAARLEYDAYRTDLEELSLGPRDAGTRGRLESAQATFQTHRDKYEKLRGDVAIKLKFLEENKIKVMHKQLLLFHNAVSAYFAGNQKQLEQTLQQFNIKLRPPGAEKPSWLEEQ",
  "assay": "Crosslinking/co-immunoprecipitation/mass spectrometry (TMT quantitative proteomics) to identify irisin receptors",
  "type": "binding",
  "conditions": "co-precipitated protein Arfip2 (ARFP2_MOUSE)",
  "outline": "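Mouse MLO-Y4 cells were switched to serum-free FreeStyle medium for 4 h, chilled, then exposed to 10 nM His-tagged irisin (or adipsin as control) for 20 min. Cells were crosslinked with 1.5 mM DTSSP (30 min, ice), and bound proteins were pulled down on Ni-NTA and eluted with 250 mM imidazole. Eluates were separated by SDS-PAGE, trypsin-digested in gel, TMT 6-plex labelled and quantified by MS3-based LC-MS/MS on an Orbitrap Fusion Lumos.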",
  "data": [
    {"molecule": "B1", "values": [
      {"measurement": "TMT signal-to-noise ratio", "value": 377.903},
      {"measurement": "irisin/adipsin TMT signal-to-noise ratio", "value": 0.346}
    ]}
  ]
}
